Assay results as given in patent publication US20190016815A1 (TRACON PHARMACEUTICALS, published 2019).
Where a chain is given by its changes, count along the chain named. Blank lines part the entries; values can stand above or below the binder they belong to.

Assays:
[1] = target: T1, human CD105 (R&D Systems Cat. No. 1097-EN) (human, UniProt P17813 26-586); test: competition ELISA on captured human CD105; unlabelled TRC205 against biotinylated TRC205 (55 ng/ml)
T1 construct: Bought protein, captured on the plate by mouse anti-human CD105 (Southern Biotechnologies 9811-01); also called human endoglin
T1 sequence (looked up): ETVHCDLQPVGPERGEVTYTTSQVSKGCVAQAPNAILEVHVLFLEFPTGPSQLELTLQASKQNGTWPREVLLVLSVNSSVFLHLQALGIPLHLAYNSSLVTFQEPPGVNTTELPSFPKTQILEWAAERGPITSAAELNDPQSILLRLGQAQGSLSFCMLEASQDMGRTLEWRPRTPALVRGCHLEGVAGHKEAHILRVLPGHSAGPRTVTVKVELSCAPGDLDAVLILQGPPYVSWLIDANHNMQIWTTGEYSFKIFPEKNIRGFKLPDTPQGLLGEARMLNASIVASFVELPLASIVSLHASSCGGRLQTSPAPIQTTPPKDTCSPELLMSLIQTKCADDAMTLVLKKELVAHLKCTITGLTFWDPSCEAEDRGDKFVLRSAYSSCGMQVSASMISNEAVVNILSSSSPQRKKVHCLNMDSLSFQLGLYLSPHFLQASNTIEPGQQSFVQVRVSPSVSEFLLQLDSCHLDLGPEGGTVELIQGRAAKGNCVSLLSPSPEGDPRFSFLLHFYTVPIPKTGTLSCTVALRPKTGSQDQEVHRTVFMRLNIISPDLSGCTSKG
Method: (§1) After washing three times with PBST, a three-fold dilution series of either human BMP9 (R&D Systems Cat. No. 3209-BP-010) (413 nM to 0.56 nM), or unlabelled TRC205 antibody (40 nM to 0.05 nM) or a single concentration of an irrelevant antibody (66 nM) was mixed with a fixed concentration of biotinylated TRC205 antibody (55 ng/ml) and added to the plate. Following incubation for 1 hour at room temperature, the plate was washed three times with PBST and binding of the biotinylated TRC205 antibody was detected using streptavidin-HRP (Sigma Cat. No. 55512) and TMB substrate (Sigma Cat. No. T0440). OD450 nm values were measured on a Dynex MRX TCII plate reader.

[2] = target: T1, human CD105 (R&D Systems Cat. No. …); test: competition ELISA on human CD105 captured on the plate (100 ng/ml); competitor: biotinylated chimeric anti-CD105 at 6.25 ng/ml; streptavidin-HRP, TMB, OD450
Method: FIGS. 6A-6F. Anti-CD105 competition ELISA with humanized and humanized/deimmunized antibodies. […] Binding was detected via streptavidin-HRP and TMB substrate. Absorbance (OD) at 450 nm was measured on a plate reader and this was plotted against the test antibody concentration. FIG. 6A provides the results from the chimeric control compared to VK1VH1, VK1VH2, VK2VH1 and VK2VH2. FIG. 6B provides the results from the chimeric control compared to VK1VH1, VK2AVH1A, VK2SAVH1Q, VK2SAVH1R and VK2SAVH1S. FIG. 6C provides the results from the chimeric control compared to VK2AAVH1A2, VK2ASVH1A2, VK2ASVH1Q, VK2SSVH1A and VK2SSVH1Q. FIG. 6D provides the results from the chimeric control compared to VK2VH1, VK2AAVH1A, VK2AAVH1Q, VK2AAVH1R and VK2AAVH1S. FIG. 6E provides the results from the chimeric control compared to VK2VH1, VK2ASVH1A, VK2ASVH1R, VK2ASVH1S, and VK2SAVH1A2. FIG. 6F provides the results from the chimeric control compared to VK2VH1, VK2SSVH1Q, VK2SSVH1A2, VK2SSVH1R and VK2SSVH1S.
Antibodies were tested in a competition ELISA for binding to CD105 against biotinylated chimeric anti-CD105. Briefly, chimeric anti-CD105 was biotinylated using a micro-biotinylation kit (Sigma, Catalog No. BTAG-1KT) following the manufacturer's instructions. […] Binding of the biotinylated chimeric antibody was detected via streptavidin-HRP (Sigma, Catalog No. 55512) and TMB substrate (Sigma, Catalog No. T0440). OD450 nm values were measured on a Dynex MRX TCII plate reader. The results of the competition analysis are illustrated in FIG. 6.

[3] = target: T1, human CD105 (R&D Systems Cat. No. …); test: competition ELISA on captured human CD105; human BMP9 against biotinylated TRC205 (55 ng/ml)
Method: as §1

B1: TRC205 antibody (antibody, IgG4, V domains shown)
VH: EVQLVESGGGLVKPGGSLRLSCAASGFTFSDAWMDWVRQAPGKGLEWVGEARSKASNHATYYAESVKGRFTISRDDSKNTLYLQMNSLKTEDTAVYYCTRWRRFFDSWGQGTLVTVSS
VL: DIQMTQSPSSLSASVGDRATITCRASSSVSYMHWYQQKPGKAPKPWAYATSNLASGVPSRFSGSGSGTDYTLTISSLQPEDFATYYCQQWSSNPLTFGGGTKVEIK
notes: IgG4); Biotinylated with a Lightning-Link kit for the direct ELISA and as the labelled tracer; also called biotinylated TRC205; unlabelled TRC205
IC50 [1]: 0.26 µg/mL

B2: VK2ASVH1R (antibody, V domains shown)
VH: B1 VH with A51I, K54R
VL: B1 VL with M4L, A47I, T50S
binding result [2]: binds

B3: VK2SSVH1R (antibody, V domains shown)
VH: B1 VH with A51I, K54R
VL: B1 VL with M4L, A19V, T22S, A47I, T50S
binding result [2]: binds

Next, values leading:

binding result [2]: binds
B4: VK2ASVH1A (antibody, V domains shown)
VH: B1 VH with G49A, A51I
VL: B1 VL with M4L, A47I, T50S

IC50 [3]: 0.35 µg/mL
B5: human BMP9 (R&D Systems Cat. No. 3209-BP-010) (ligand, UniProt Q9UK05 320-429, looked up)
chain: SAGAGSHCQKTSLRVNFEDIGWDSWIIAPKEYEAYECKGGCFFPLADDVTPTKHAIVQTLVHLKFPTKVGKACCVPTKLSPISVLYKDDMGVPTLKYHYEGMSVAECGCR
notes: Bought protein
